Numbering of substitutions follows the chain as printed. In names and notes the source's numbering stands.
B1: YfiB (residues 34–168), wild type (domain or fragment)
chain: GLSAEQIAVLQEQGFELRDEGWEFGMSSKVLFGNNLDRLNPDSRNTLTKIARALLAVDIDKVRLEGHTDNYGDEGYNQKLSERRAESVAAVFREAGMPAANIEVRGLGMSKPVADNKTRAGRSENRRVAIIVPAE
notes: YfiB, P. aeruginosa, residues 34-168, lacking the signal peptide (residues 1-26) and periplasmic residues 27-33; ORF1 of pETDuet-1 with N-terminal His6 and a TEV cleavage site; no cleavage of the tag is told for YfiB; Monomer and dimer in solution (AUC); also called wild-type YfiB; apo YfiB
B2: YfiB^L43P (residues 34–168), co-expressed with YfiR (domain or fragment)
chain: B1 chain with L10P
notes: YfiB, P. aeruginosa, residues 34-168, with L43P; residues 44-168 are visible in the complex structure; Two copies in the 2:2 heterotetramer, separated from each other
B3: YfiR (residues 35–190), co-expressed with YfiB (domain or fragment, P. aeruginosa, UniProt Q9I4L4 35-190, looked up)
chain: DDARTSIEQRSNAVSQVLLGIFSYVRWPKEPAVLQLCVVGPTEYADGLLRGMVQANGRRVHAERRAVDNPDLGTLCNVIYLGVVDERERQQVFRSLAGHPVLSISERGTECSVGSMFCLNVGGPRITFEANLDSIARSGVRVHPSVLKLARRQATP
notes: YfiR, P. aeruginosa, residues 35-190, lacking the signal peptide; ORF1 of pETDuet-1 with N-terminal His6 and a TEV cleavage site; Dimer in the 2:2 complex; only the Cys145-Cys152 disulfide is well formed there; not shown: His6, N-terminal, kept
B4: YfiR (residues 35–190), purified alone (domain or fragment, P. aeruginosa, UniProt Q9I4L4 35-190, looked up)
chain: B3 chain
notes: YfiR, P. aeruginosa, residues 35-190, lacking the predicted N-terminal periplasmic localization signal peptide; also called native YfiR; not shown: His6, N-terminal, cleaved

Tests used:
[1] = biological target: the molecule itself; assay: AUC; sedimentation velocity, 25°C, samples at OD280 of 0.7 in 20 mmol/L Tris pH 8.0, 200 mmol/L NaCl, 60,000 rpm; dimer to monomers
[2] = biological target: B3; assay: crystal structure; YfiB^L43P-YfiR complex, space group P1, 1.78 Å, 2:2 heterotetramer in the asymmetric unit; 0.2 mol/L ammonium sulfate, 0.1 mol/L Tris-HCl pH 8.0, 12% PEG 8000, 293 K; details: both partners purified
[3] = biological target: the molecule itself; assay: as above
[4] = biological target: the molecule itself; assay: crystal structure; VB6-bound (soaked, 2.4 Å) and Trp-bound (co-crystallised, 2.5 Å) YfiR, space group P4_3 2_1 2, a dimer in the asymmetric unit

B1
stoichiometry N [1]: 2

B2
stoichiometry N [2]: 1 YfiB per YfiR (printed as 2:2)

B3
binding result [3]: binds

B4
binding result [4]: binds

Source: article PMC4887326, “Structural insights into the regulatory mechanism of the Pseudomonas aeruginosa YfiBNR system” (Protein & Cell, 2016)
